Results on 38 sequences are retold here after the supplement of paper PMC7877785.

± gives the uncertainty stated by the source.

The series can be described thus: self-splicing fitness, log relative to wild type (ln ratio); higher = more splicing; Tetrahymena group I intron in knt gene, E. coli kanamycin selection, DiMSum; sequences stand for … in CUCUCU…GGAGGGAAAAGUUAUCAGGCAUGCACCUGGUAGCUAGUCUUUAAACCAAUAGAUUGCAUCGGUUUAAAAGGCAAGACCGUCAAAUUGCGGGAAAGGGGUCAACAGCCGUUCAGUACCAAGUCUCAGGGGAAACUUUGAGAUGGCCUUGCAAAGGGUAUGGUAAUAAGCUGACGGACAUGGUCCUAACCACGCAGCCAAGUCCUAAGUCAACAGAUCUUCUGUUGAUAUGGAUGCAGUUCACAGACUAAAUGUCGGUCGGGGAAGAUGUAUUCUUCUCAUAAGAUAUAGUCGGACCUCUCCUUAAUGGGAGCUAGCGGAUGAAGUGAUGCAACACUGGAGCCGCUGGGAACUAAUUUGUAUGCGAAAGUAUAUUGAUUAGUUUUGGAGUACUCGUGGUCG
The method, boiled down: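 DiMSum derived fitness as the error-weighted combination of fold changes across replicates, kanamycin versus no kanamycin, normalised to wild type. E. coli BL21(DE3) held the library, which randomised all eight P1ex-region intron nucleotides within the knt kanamycin-resistance gene on pET-22b(+). Six replicate transformations grew overnight at 37°C or 30°C on LB agar with or without 25 μg/mL kanamycin, also containing 100 μg/mL carbenicillin, 50 μM IPTG and 0.2% rhamnose, and pooled colonies were amplicon-sequenced on an Illumina HiSeq 2500.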

For GUGCAGCAAUAUUACGUGGC, the “self-splicing fitness (ln)” value is, setting by setting: (30 °C) -3.55 ± 0.27; (37 °C) -1.8 ± 0.15.
For the sequence AAAAAGCAAUAUUACGACAU, the “self-splicing fitness (ln)” value by setting is: (30 °C) 0.00477 ± 0.011; (37 °C) 0.11 ± 0.032.
As for CGAGAGCAAUAUUACGCUUA, the “self-splicing fitness (ln)” value was -2.49 ± 0.23 (30 °C) and -2.13 ± 0.46 (37 °C).
Turning to UGCUAGCAAUAUUACGUUUC, the “self-splicing fitness (ln)” value (30 °C) is -4.01 ± 0.42 and the “self-splicing fitness (ln)” value (37 °C) is -2.06 ± 0.34.
As to UGCUAGCAAUAUUACGGAUA, the “self-splicing fitness (ln)” value is, setting by setting: (30 °C) -1.44 ± 0.11; (37 °C) -1.1 ± 0.13.
Regarding AGUUAGCAAUAUUACGGUCA, the “self-splicing fitness (ln)” value by setting is: (30 °C) -1.08 ± 0.077; (37 °C) -0.46 ± 0.085.
For GGCAAGCAAUAUUACGUCCU the same measures were -1.39 ± 0.088 and -1.54 ± 0.11.
Turning to CAACAGCAAUAUUACGUUAU, the “self-splicing fitness (ln)” value is -3.16 ± 0.13 (30 °C) and -1.94 ± 0.13 (37 °C).
As to CAUGAGCAAUAUUACGUCCG, the “self-splicing fitness (ln)” value was -0.682 ± 0.079 (30 °C) and -0.331 ± 0.1 (37 °C).
Consider CAUAAGCAAUAUUACGGCAA, for which the “self-splicing fitness (ln)” value is, setting by setting: (30 °C) -2.52 ± 0.18; (37 °C) -1.61 ± 0.18.
On to GCCGAGCAAUAUUACGGUAA, for which the “self-splicing fitness (ln)” value was -0.184 ± 0.11 (30 °C) and -0.414 ± 0.091 (37 °C).
For GAAGAGCAAUAUUACGCACA the same measures were -1.91 ± 0.16 and -1.07 ± 0.14.
Regarding CCCGAGCAAUAUUACGGAAG, the “self-splicing fitness (ln)” value is, setting by setting: (30 °C) -3.91 ± 0.24; (37 °C) -2.29 ± 0.15.
As for UUUGAGCAAUAUUACGAAGA, the “self-splicing fitness (ln)” value was -2.31 ± 0.44 (30 °C) and -1.55 ± 0.38 (37 °C).
For CAAAAGCAAUAUUACGCGAG the same measures were -2.58 ± 0.098 and -1.06 ± 0.078.
For GUACAGCAAUAUUACGACCU, the “self-splicing fitness (ln)” value by setting is: (30 °C) -0.715 ± 0.21; (37 °C) -0.152 ± 0.24.
As to UUGUAGCAAUAUUACGGGCC, for the setting “37 °C”, the “self-splicing fitness (ln)” value is -1.69 ± 0.38.
On to UUCAAGCAAUAUUACGAUCC, for which the “self-splicing fitness (ln)” value (30 °C) is -2.66 ± 0.27 and the “self-splicing fitness (ln)” value (37 °C) was -1.55 ± 0.29.
For UGCGAGCAAUAUUACGAGGC the same measures were -2.74 ± 0.23 and -2 ± 0.23.
The like results for AAACAGCAAUAUUACGGACU were, in that order, -0.635 ± 0.097 and -0.406 ± 0.12.
For the sequence AAACAGCAAUAUUACGAGGA, the “self-splicing fitness (ln)” value (30 °C) was -4 ± 0.26 and the “self-splicing fitness (ln)” value (37 °C) is -1.97 ± 0.13.
In the case of AUACAGCAAUAUUACGAGUG, the “self-splicing fitness (ln)” value is, setting by setting: (30 °C) -2.32 ± 0.073; (37 °C) -1.34 ± 0.093.
CCGAAGCAAUAUUACGACAU: the “self-splicing fitness (ln)” value was -3.977 ± 0.028 (30 °C) and -2.82 ± 0.04 (37 °C).
For ACGUAGCAAUAUUACGUGUA, the “self-splicing fitness (ln)” value is, setting by setting: (30 °C) -2.51 ± 0.14; (37 °C) -2.2 ± 0.14.
Take UAUGAGCAAUAUUACGAACU: under “37 °C”, the “self-splicing fitness (ln)” value is -1.57 ± 0.26.
Regarding UGUUAGCAAUAUUACGUGUU, the “self-splicing fitness (ln)” value by setting is: (30 °C) -3.3 ± 0.29; (37 °C) -3.27 ± 0.47.
Turning to UCCCAGCAAUAUUACGUUGU, the “self-splicing fitness (ln)” value was -4.06 ± 0.15 (30 °C) and -1.97 ± 0.11 (37 °C).
Consider CGGCAGCAAUAUUACGGCGA, for which the “self-splicing fitness (ln)” value is -3.18 ± 0.16 (30 °C) and -2.72 ± 0.18 (37 °C).
For UCCCAGCAAUAUUACGGCGC, the “self-splicing fitness (ln)” value runs as follows: (30 °C) -1.67 ± 0.091; (37 °C) -0.401 ± 0.14.
The like results for CCCUAGCAAUAUUACGUAGC were, in that order, -2.65 ± 0.17 and -2.75 ± 0.24.
The like results for UGGGAGCAAUAUUACGAAUG were, in that order, -1.99 ± 0.21 and -2.07 ± 0.33.
For CAGGAGCAAUAUUACGUUAU the same measures were -3.4 ± 0.29 and -2.71 ± 0.3.
On to CCGUAGCAAUAUUACGACAC, for which, for the setting “30 °C”, the “self-splicing fitness (ln)” value was -1.82 ± 0.22.
For the sequence CCAAAGCAAUAUUACGAAAA, the “self-splicing fitness (ln)” value is, setting by setting: (30 °C) -1.93 ± 0.17; (37 °C) -2.85 ± 0.32.
In the case of UCGAAGCAAUAUUACGGGCC, the “self-splicing fitness (ln)” value (30 °C) was -2.98 ± 0.38 and the “self-splicing fitness (ln)” value (37 °C) is -0.79 ± 0.33.
As to CUCGAGCAAUAUUACGGUUA, the “self-splicing fitness (ln)” value runs as follows: (30 °C) -2.71 ± 0.16; (37 °C) -1.58 ± 0.13.
The like results for UUUCAGCAAUAUUACGAUGU were, in that order, -2.13 ± 0.13 and -1.47 ± 0.15.
For CCUCAGCAAUAUUACGGUAG the same measures were -0.514 ± 0.05 and -0.195 ± 0.067.
